Reference: US20210340238A1 (SCHOLAR ROCK, published 2021)

Columns and labels:
[1] = target: T1, recombinant human LTBP1-proTGFβ1 complex (human, UniProt Q14766 347-1721; P01137 30-390); experiment: cell-based or functional assay
[2] = target: T2, recombinant human LTBP3-proTGFβ1 complex (human, UniProt Q9NS15 44-1303; P01137 30-390, limits assumed); experiment: cell-based or functional assay
[3] = target: human GARP-proTGFβ1 complex presented on the cell surface (human, UniProt Q14392 20-662; P01137 30-390); experiment: cell-based or functional assay
[4] = target: human LRRC33-proTGFβ1 complex presented on the cell surface (human, UniProt Q86YC3 19-692; P01137 30-390); experiment: cell-based or functional assay
[5] = target: T1, recombinant human LTBP1-proTGFβ1 complex; experiment: Octet (BLI); IgG1 from yeast
[6] = target: T2, recombinant human LTBP3-proTGFβ1 complex; experiment: Octet (BLI); IgG1 from yeast
[7] = target: T3, recombinant human GARP-proTGFβ1 complex (human, UniProt Q14392 20-627; P01137 30-390, limits assumed); experiment: Octet (BLI); IgG1 from yeast
T3 construct: Purified complex of the Octet and MSD-SET assays, biotinylated; also called hGARP; hGARP-proTGFβ1
T3 sequence (Q14392 20-627 limits assumed, chain 1 of 2): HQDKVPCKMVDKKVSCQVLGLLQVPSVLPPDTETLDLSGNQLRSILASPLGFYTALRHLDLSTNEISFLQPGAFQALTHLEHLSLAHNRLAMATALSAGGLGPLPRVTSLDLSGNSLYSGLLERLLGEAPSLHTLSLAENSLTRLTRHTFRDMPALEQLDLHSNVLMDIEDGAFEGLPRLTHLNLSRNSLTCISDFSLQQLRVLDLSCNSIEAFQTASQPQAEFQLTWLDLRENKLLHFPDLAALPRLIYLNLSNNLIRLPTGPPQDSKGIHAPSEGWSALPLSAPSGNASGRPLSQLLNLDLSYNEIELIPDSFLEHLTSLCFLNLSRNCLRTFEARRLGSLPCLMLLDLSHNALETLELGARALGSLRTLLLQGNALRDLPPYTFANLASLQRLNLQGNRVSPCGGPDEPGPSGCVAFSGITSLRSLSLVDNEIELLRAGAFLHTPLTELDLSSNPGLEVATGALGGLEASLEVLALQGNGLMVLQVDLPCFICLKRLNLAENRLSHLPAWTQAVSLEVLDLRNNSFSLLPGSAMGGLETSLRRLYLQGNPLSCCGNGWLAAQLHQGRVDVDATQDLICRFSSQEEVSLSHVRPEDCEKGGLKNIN
T3 sequence (P01137 30-390 limits assumed, chain 2 of 2): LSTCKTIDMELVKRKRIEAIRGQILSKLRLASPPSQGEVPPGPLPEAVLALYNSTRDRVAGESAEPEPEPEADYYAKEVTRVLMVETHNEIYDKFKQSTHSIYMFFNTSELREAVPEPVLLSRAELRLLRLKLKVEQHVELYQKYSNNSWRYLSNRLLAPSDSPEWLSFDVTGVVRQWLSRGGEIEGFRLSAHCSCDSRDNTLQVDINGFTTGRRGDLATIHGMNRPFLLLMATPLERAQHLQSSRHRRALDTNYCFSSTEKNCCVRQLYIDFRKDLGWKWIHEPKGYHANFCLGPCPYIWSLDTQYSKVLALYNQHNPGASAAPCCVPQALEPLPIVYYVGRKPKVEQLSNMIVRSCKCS

[8] = target: T4, recombinant human LRRC33-proTGFβ1 complex (human, UniProt Q86YC3 19-650; P01137 30-390, limits assumed); experiment: Octet (BLI); IgG1 from yeast
T4 construct: Purified complex of the Octet and MSD-SET assays, biotinylated; also called hLRRC33; hLRRC33-proTGFβ1
T4 sequence (Q86YC3 19-650 limits assumed, chain 1 of 2): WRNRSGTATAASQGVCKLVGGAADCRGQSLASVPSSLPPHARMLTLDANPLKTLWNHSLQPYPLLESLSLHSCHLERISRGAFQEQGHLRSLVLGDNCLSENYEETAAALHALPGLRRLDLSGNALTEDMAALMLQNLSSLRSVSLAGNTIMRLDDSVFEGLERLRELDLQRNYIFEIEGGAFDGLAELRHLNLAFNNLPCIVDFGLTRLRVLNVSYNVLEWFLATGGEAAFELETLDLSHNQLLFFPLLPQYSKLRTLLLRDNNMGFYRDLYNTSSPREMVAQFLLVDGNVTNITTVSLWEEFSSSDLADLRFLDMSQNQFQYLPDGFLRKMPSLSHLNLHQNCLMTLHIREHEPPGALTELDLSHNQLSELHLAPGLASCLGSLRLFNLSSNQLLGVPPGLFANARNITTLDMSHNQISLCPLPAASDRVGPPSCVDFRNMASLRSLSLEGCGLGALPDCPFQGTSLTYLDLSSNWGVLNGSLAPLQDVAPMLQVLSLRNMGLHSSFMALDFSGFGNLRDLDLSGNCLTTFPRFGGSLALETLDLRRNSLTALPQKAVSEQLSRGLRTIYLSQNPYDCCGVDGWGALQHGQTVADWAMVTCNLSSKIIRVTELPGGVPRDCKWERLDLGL
T4 sequence (P01137 30-390 limits assumed, chain 2 of 2): as the sequence (P01137 30-390 limits assumed, chain 2 of 2) above

[9] = target: T1, recombinant human LTBP1-proTGFβ1 complex; experiment: MSD-SET; IgG4 from mammalian cells
[10] = target: T2, recombinant human LTBP3-proTGFβ1 complex; experiment: MSD-SET; IgG4 from mammalian cells
[11] = target: T3, recombinant human GARP-proTGFβ1 complex; experiment: MSD-SET; IgG4 from mammalian cells
[12] = target: T4, recombinant human LRRC33-proTGFβ1 …; experiment: MSD-SET; IgG4 from mammalian cells

T1 sequence (Q14766 347-1721 limits assumed, chain 1 of 2): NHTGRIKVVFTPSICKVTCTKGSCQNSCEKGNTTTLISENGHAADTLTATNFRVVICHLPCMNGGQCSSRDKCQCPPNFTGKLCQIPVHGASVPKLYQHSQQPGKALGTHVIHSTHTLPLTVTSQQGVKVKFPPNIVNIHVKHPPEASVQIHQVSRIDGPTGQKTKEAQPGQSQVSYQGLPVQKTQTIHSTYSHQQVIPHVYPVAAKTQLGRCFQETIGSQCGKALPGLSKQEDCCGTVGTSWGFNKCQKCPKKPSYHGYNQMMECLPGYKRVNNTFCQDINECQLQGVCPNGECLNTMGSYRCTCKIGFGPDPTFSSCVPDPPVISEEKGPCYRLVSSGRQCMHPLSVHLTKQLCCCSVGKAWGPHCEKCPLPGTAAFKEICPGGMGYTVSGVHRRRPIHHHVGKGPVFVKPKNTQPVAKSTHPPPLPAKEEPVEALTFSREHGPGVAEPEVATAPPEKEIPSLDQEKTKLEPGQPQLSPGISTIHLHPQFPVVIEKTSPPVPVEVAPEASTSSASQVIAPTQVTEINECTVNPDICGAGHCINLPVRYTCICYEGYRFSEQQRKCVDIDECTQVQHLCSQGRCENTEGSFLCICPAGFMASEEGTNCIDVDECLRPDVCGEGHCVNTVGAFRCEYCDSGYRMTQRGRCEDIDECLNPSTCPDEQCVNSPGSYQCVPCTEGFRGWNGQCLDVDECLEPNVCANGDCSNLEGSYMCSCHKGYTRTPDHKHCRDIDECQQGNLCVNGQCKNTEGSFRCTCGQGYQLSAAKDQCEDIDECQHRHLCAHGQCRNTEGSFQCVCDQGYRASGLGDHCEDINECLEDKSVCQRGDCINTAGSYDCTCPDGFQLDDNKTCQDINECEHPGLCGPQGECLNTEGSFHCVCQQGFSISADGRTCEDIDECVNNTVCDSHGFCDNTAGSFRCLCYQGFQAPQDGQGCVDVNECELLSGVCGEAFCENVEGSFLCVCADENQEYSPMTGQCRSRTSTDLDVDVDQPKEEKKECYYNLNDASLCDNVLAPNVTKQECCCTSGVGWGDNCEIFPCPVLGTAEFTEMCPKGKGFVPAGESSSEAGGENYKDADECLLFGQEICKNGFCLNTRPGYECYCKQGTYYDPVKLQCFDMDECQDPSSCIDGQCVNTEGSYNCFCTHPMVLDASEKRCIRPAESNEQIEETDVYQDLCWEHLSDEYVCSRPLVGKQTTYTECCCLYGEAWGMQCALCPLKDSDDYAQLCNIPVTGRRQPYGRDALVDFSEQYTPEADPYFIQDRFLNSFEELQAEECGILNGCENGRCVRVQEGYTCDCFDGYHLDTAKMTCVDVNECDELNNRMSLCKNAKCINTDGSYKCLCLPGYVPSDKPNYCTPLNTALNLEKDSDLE
T1 sequence (P01137 30-390 limits assumed, chain 2 of 2): as the sequence (P01137 30-390 limits assumed, chain 2 of 2) above
T2 sequence (Q9NS15 44-1303 limits assumed, chain 1 of 2): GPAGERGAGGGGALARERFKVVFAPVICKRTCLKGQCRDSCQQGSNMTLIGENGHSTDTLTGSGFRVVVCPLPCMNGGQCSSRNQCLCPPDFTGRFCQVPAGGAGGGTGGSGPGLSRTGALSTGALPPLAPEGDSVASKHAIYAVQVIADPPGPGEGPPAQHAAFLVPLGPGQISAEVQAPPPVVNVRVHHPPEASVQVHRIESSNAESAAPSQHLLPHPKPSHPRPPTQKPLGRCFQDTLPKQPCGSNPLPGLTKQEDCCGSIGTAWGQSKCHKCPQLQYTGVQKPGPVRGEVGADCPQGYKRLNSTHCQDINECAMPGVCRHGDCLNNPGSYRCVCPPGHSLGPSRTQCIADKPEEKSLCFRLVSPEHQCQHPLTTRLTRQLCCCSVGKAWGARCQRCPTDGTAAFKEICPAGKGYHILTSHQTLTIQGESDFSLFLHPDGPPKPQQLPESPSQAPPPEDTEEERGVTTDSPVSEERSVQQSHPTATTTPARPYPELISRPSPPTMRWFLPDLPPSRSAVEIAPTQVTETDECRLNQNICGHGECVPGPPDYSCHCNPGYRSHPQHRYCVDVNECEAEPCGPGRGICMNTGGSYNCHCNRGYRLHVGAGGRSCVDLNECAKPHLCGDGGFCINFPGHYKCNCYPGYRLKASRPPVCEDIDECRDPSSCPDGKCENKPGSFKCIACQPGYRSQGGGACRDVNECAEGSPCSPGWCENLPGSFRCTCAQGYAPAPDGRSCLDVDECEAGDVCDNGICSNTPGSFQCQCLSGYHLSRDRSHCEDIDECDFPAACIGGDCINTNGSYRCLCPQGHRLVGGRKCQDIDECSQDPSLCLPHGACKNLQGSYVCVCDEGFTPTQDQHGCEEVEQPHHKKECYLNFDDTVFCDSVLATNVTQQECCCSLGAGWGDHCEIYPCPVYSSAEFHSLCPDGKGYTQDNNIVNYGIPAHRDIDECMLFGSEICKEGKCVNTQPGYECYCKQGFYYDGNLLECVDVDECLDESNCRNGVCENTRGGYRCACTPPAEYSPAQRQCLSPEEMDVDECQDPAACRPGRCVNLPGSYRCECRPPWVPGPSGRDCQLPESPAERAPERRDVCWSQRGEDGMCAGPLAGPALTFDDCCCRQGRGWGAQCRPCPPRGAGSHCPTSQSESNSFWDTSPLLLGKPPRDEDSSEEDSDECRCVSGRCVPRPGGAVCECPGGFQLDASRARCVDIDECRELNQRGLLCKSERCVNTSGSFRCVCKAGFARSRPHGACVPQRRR
T2 sequence (P01137 30-390 limits assumed, chain 2 of 2): as the sequence (P01137 30-390 limits assumed, chain 2 of 2) above

- IC50 (nM), cell-based potency assay, CAGA12 luciferase reporter [1]: 24.3 nM
- IC50 (nM), cell-based potency assay, CAGA12 luciferase reporter [2]: 10.4 nM
- IC50 (nM), cell-based potency assay, CAGA12 luciferase reporter [3]: 0.981 nM
- IC50 (nM), cell-based potency assay, CAGA12 luciferase reporter [4]: 0.858 nM
- Kd [5]: 0.47 nM
- Kd [6]: 0.459 nM
- Kd [7]: 17.3 nM
- Kd [8]: 8.52 nM
- Kd [9]: 13 nM
- Kd [10]: 16.2 nM
- Kd [11]: 28 nM
- Kd [12]: 35 nM
B1: Ab3 (antibody, V domains shown)
VH: EVQLLESGGGLVQPGGSLRLSCAASGFTFRNYAMSWVRQAPGKGLEWVSSISGSGGATYYADSVKGRFTISRDNSKNTLYLQMNSLRAEDTAVYYCARVSSGHWDFDYWGQGTLVTVSS
VL: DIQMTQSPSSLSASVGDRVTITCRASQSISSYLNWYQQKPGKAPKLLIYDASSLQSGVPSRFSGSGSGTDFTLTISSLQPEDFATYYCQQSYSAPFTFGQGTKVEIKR
